From patent US20250215091A1, “Anti-GAL3 Antibodies and Compositions” (Les Laboratoires Servier, priority 2022, published 2025)

Assays:
[1] = system: murine model of HOCI-induced fibrosis; assay: HOCI-induced murine fibrosis model: skin thickness; assay type: in vivo, mice
Experimental: (§1) In a first experiment, control mice (n=12) received a daily intradermal injection of 300 μL of sterile phosphate buffer saline (PBS) for 5 consecutive days per week, for a duration of 42 days. HOCI alone and HOCI with antibody (HOCI-antibody) treated mice (n=12 per group) received a daily intradermal injection of 300 μL of HOCI for 5 consecutive days per week, for a duration of 42 days. Antibody-treated mice also received a subcutaneous injection of 20 mg/kg antibody, starting at day minus one and every 5 days between day 5 and day 40. Each antibody was solubilized in sterile, endotoxin-free PBS before injection. In a second experiment, the same protocol was applied, except that duration of the study was 63 days and antibodies were given every 7 days starting at day minus 1 until day 62.
(§2) Mice that received daily injection of HOCI were also treated by intratracheal instillation of 0.5 mg/kg of TD139 compound (HOCI-TD139), a small molecule Gal3 inhibitor. In a first experiment, the administrations started from day 21 and the compound was given every 3 days until day 39. In a second experiment, the administrations started from day 20 and the compound was given every 3 days until day 62. TD139 was initially dissolved in 100% DMSO then diluted 50-fold in endotoxin-free PBS before administration.
The evolution of skin thickness was monitored by using an external caliper, every seven days until sacrifice.

[2] = system: genes differentially regulated between HOCI group and control group in whole blood cells; assay: HOCI-induced murine fibrosis model: whole blood RNA sequencing; assay type: in vivo, mice; details: of 510 genes differentially regulated HOCI vs control; day 42, whole blood
Experimental: as §1, §2
In the first experiment, global gene expression was examined at day 42 in whole blood cells by RNA sequencing.
Whole blood was collected in RNA protect tubes (Qiagen) and were processed for RNA extraction using the RNeasy Protect Animal blood kit with the optional on-column DNAse I digestion. Total RNA samples were quantified on Nanodrop 2000 (ThermoFisher Scientific™) and analyzed on Bioanalyzer (Agilent) using RNA 6000 Nano chips to determine RNA quality (RIN). Total RNA matching the QC criteria were included in the study. Purified RNA samples were used as input for the TruSeq Strand-specific RNA-seq (poly A selection and globin depletion) according to manufacturer's protocol (Illumina). […]
Raw reads were processed using the in-house RNAExp Expression pipeline 2.1 and the quality was assessed using FastQC tools. Then, reads were trimmed for adaptors using Cutadapt and trimmed reads were aligned to mouse mm39 reference genome using the STAR aligner. Aligned data were evaluated for quality using Samtools and Picard tools. Then, aligned reads per gene were quantified using FeatureCount. […] Read count were normalized by the variance stabilizing transformation vst function from DESeq2 R package.
55,416 genes were detected in the data. […] Genes differentially expressed between groups were determined using a linear model (ImFit function from limma R package) on vst transformation gene expression dataset. […]

B1: E07: anti-Gal3 monoclonal antibody, IgG1 format; VH SEQ ID NO 42, VL SEQ ID NO 43 (antibody, V domains shown)
VH: EVQLVESGGSLVKPGGSLRLSCAASGFTFSNYNMNWVRQAPGKGLEWISNIYGSSRYIYYADFVKGRFTISRDNAKNSLYLQMNSLRAEDTAVYYCVRSYYGGMDVWGRGTLVTVSS
VL: QSVLTQPASVSGSPGQSITISCAGTSSDVGGYYSVSWYQQHPGKAPKLMIYYDSNRPSGVSNRFSGSKSGNTASLTISGLQAEDEADYYCSSYTGYSTRVFGGGTKLEIK
**Q.** How did the “HOCI-induced increase in skin thickness” value ([1]; first experiment, 42 days, antibody 20 mg/kg s.c., TD139 0.5 mg/kg intratracheal, vs HOCI group, FIG. 7A) turn out when B1 was run?
**A.** Its value is “significantly reduced”.

**Q.** And the “day from which reduction of skin thickness was significant” value ([1]; first experiment, sustained effect until day 42)?
**A.** The value was 21 days.

**Q.** And the “HOCI-induced increase in skin thickness” value ([1]; second experiment, 63 days, antibody 20 mg/kg s.c. every 7 days, sustained effect until day 63, FIG. 7B)?
**A.** The value was “significantly reduced”.

**Q.** What about the “day from which reduction of skin thickness was significant” value ([1]; second experiment, sustained effect until day 63) of the same molecule?
**A.** The value was 7 days.

**Q.** What about the “number of HOCI-dysregulated genes counteracted by treatment” value [2] of the same molecule?
**A.** Its value is 445 genes.

**Q.** And the “percentage of HOCI-dysregulated genes counteracted by treatment” value [2]?
**A.** The value was 87.2%.
